In the DeepSol protein solubility set:

Experiment: soluble on expression in E. coli; label from the status in PepcDB or PDB records

Sequence	soluble on expression in E. coli
MSLTVLPVPDLLARALDRRAGLPGAGTTFFRAVHITETGGLWTLDVAGDAGILSLYTDLSAEAERDLAAQCGEAAGLSSVYLKRRPPEAKHLANVAREVLSPPDPLWGTARPEVTALEEGVPFLIRPGADLSVGLFSDARPARRWVRGHAAGQRVLNTFAYTCGFGLNAALAGAASVKNVDLSRKVLGWGQQNYALSGLAAPDHDFLYGDVFEWLTRLQRRGDLFDLVILDPPGFARSKAGTWRAEKDYGRLMAQASAVTAPGGEVLALLNHAGVSAGGLTHMVEQGLSTAGRRGHLTETLGPGRDYPGATHLKVQRWSLNEGGSHHHHHH	soluble
MPPPLPYDAMRSVWTDTAAPAMATVPLAGHADCDVAIVGAGITGLSAALHLAERGLRACVLEARDPGWGASGRNGGQVIPGIKHDPDEILARHGRERGEPLLHMVGTAADTVFDLIDRYGLDCHPVRRGWIQPAHSRQALDAVLARARQWRARGADVAELDAGDVARRLGTGRFLGGWIDRRAGSIQPLRYTRGLLRAALSLGAAVHGQSPVVALQREGSRWLVRCAQGASVRAEHVLIATNAYTDDLWPGLRRTVIAANSFIVATGPLDPALAPAILPGGEVASDSRRLLLYFRRDADRRFILGGRGRFADPVSDADWNHLVRGARLLYPQLADTPFVHRWSGRVALTRDFVPHVHQPSPNLRIVLGYNGRGVALATQMGNYLAREISGGEPLPYPVTPIAPIPLHGLKRLYIGLAVAYYGLCDRISLEHHHHHH	not soluble
MAEEAVDARGEGARFIEKVKSICGNTSRILYKYDEPTDPRYGYLPHERPLDVYLRYGMIVVDKPPGPTSHEVVAWIKRMLGVSRAGHGGTLEPLPAPRGLRGGDILK	soluble
MLTSEQVKAMIEGVAKCEHIEVEGDGHHFFAVIVSSEFEGKARLARHRLIKDGLKAQLESNELHALSISVAATPAEWAAKAQ	not soluble
MIFYFSGTGNSKWIANQLSKEQQEDLFFIPDAWKNDTWEFSLREDEKIGFVFPVYSWAPPVIVQEFIRKLVLKGYQQQYLFFVCSCGDDTGLTRQVMEKALAARGWRCNAGFSVIMPNNYVLFLGFDVDSKELEKKKLAEAVPALEKVSRLITGRETVFACKEGSLPFIKTRIINPLFVRYQMSPKPFHATSECIGCKRCEKSCPVGNITMKERRPVWGKNCTACLACYHVCPQHAVQYGKKTKGKGHYFNPDSAYLEHHHHHH	soluble
MGSDKIHHHHHHMRTDNKLSGIIAKKHSFSVPLDYQQSPSEQINLFVRELSSVEHQNKELPYLVFFQGGPGFGAVRPVANTGWIKRALTQYRVLLLDQRGTGLSTPVSAESLAHLTSQQQAEYLSHFRSDNIIRDAELIRAKLSPDRPWSILGQSFGGFCVLRYLSAAPQGLKAAYITGGIPSLERSADEVYQATYQRVLAKNQDFFSRFSDARELANRLASHISEYEVLLSSGERLTVEMLQLLGINLGMEQGPEGVYYLLEQALIDTAQGVKVNPLFLHQFGQFLDYNTNPLFAVLHESIYCQNSASNWAAHRVREQYSQFNYHLGKDLLFTGEMVYPWMFDQFSQLQPLKEAAELLAAKSDWPALYDLEQLKANTVPVSAAIYSEDMFVEMQYSLETTKDVGSLKYWLTSEYEHNGIRMDGERVLDKLIALNTGRELR	not soluble
MVMKQTKQTNILAGAAVIKVLEAWGVDHLYGIPGGSINSIMDALSAERDRIHYIQVRHEEVGAMAAAADAKLTGKIGVCFGSAGPGGTHLMNGLYDAREDHVPVLALIGQFGTTGMNMDTFQEMNENPIYADVADYNVTAVNAATLPHVIDEAIRRAYAHQGVAVVQIPVDLPWQQIPAEDWYASANSYQTPLLPEPDVQAVTRLTQTLLAAERPLIYYGIGARKAGKELEQLSKTLKIPLMSTYPAKGIVADRYPAYLGSANRAAQKPANEALAQADVVLFVGNNYPFAEVSKAFKNTRYFLQIDIDPAKLGKRHKTDIAVLADAQKTLAAILAQVSERESTPWWQANLANVKNWRAYLASLEDKQEGPLQAYQVLRAVNKIAEPDAIYSIDVGDINLNANRHLKLTPSNRHITSNLFATMGVGIPGAIAAKLNYPERQVFNLAGDGGASMTMQDLATQVQYHLPVINVVFTNCQYGFIKDEQEDTNQNDFIGVEFNDIDFSKIADGVHMQAFRVNKIEQLPDVFEQAKAIAQHEPVLIDAVITGDRPLPAEKLRLDSAMSSAADIEAFKQRYEAQDLQPLSTYLKQFGLDDLQHQIGQGGF	soluble
MKMNVESFNLDHTKVKAPYVRIADRKKGVNGDLIVKYDVRFKQPNRDHMDMPSLHSLEHLVAEIIRNHANYVVDWSPMGCQTGFYLTVLNHDNYTEILEVLEKTMQDVLKAKEVPASNEKQCGWAANHTLEGAQNLARAFLDKRAEWSEVGVGSHHHHHH	soluble
MAHHHHHHMRCVRRSVLGSRGLKRPMFNYTRIFSMGITQHTFTGALLEDLRAGGCCGDQTEDNPGSSLRHGELDHFESPEAEAAHVEKVNTVVDDLFSRMPLPEDPMGAALAPTKEEMEEKAEWDVLKEVVRERYQRKIALKEAERVRIDKAMQHYRVDKDIEGGVSGVTGATGDSEKIRKKIERMKQEIVELERRLEAANHDDNL	not soluble
MNNGTVKWFNAEKGFGFIEQENGGDVFVHFSGIASDGYKTLEEGQKVTFEITEGQRGDQAVNVQTV	not soluble
MKIAIFSKLTIKEDEIRKKLGNYDVDIFPPIKRGDLTSEKIFDYDIIGIIDGCFLQSTAVAHREILKVIENNITVFGAGSMGALRASELDTCGMIGVGLVYNLYKNGIISDDDEVAVTFDDNLNQITFSMISFREMIKNALNEKIIDEDDSKRLINSGKELYYPLRTFENVIEKSKISGEKREVLEKFLKNQPDIKRNDAFEMLEEIIKYIEKQ	not soluble
MTVTLTCRFKLELSKDQKQQFLDIATAYTNAVNYVLEQNLKDKSTNVKKLHRLYYKTIREDFDLPAQMAINVNRDVSAMYKTLWAQFKELKRRKPDSKAVKKFWDKPPKRKSLIVKYTYNRTASFKKINGEWHASLSTLQGRIKWIPMKGWSKHFEYLKSCKIGDPILTYDKSSKTFFLLVPVTLEVQEHQPKEIVGVDVGERHIAAVASTKGTRYLIDLPEEFKQRKQHYQRLRSELMSKGTRSAKRKLARISRREKRFTENVLHIIAKKLTTSHPGARFVLEDLTQIRANRITYRGKDKEARRQSEQWPFASLQQKIEYKAKLYYGVQSEKVDPSYTSQTCPRCGHVSKENRPDHGERFVCQSCGYEEHADIVGAINIALRVLAKDQQVNLEKLLGAVVSRPDAPRLG	not soluble
FPSGSAQLSARLYLPAGTPQVAVVINGATGVPREYYQHFATWLAAERGIACLTYDYRDFGHSLRGPLAASTATMSDWALIDMPAAYAEMQRRYPDLPLWVIGHSVGGMLGPLQPGIEPIARMICVCSGLVHHSDHPWPYQALARLFWFGHAPLLVKTLGYLPGRRIGFGSDLPPGVYWEWRRWCTTPGAYLPEMGDRLPQADWSRSGAPVDMFAFEDDTTIPPNCVWRLADVYGETVRRHLLHPRAFGLREIGHLGAFARRNAALWPRLIA	not soluble
MAHHHHHHMAALQHVNSATEITPLLACGGDYVKNGTQTLSIPSVYATLDALESLWQAQREKQHLSVRGRAQGLRHYHAVYEASARCVPLSLTRWEQWLAGLSEQGARSTVGACPDELSSSSSPHVQRVQKELVDSYWHLYRRLCWGSSGAAKAGLAAVLEHTDSAASGLPSVMATGAASLLAKQEAALAKPLQAFARLSADRHTCSPITR	not soluble
MDKKILVVDDEKPIADILEFNLRKEGYEVHCAHDGNEAVEMVEELQPDLILLDIMLPNKDGVEVCREVRKKYDMPIIMLTAKDSEIDKVIGLEIGADDYVTKPFSTRELLARVKANLRRQ	soluble
QSAYSRIEAESYSNQSGIQTETCSEGGEDVGFVENGDYTVYNNVDFGDGVGGFQARVASATSGGNIEIRLDSSTGTLIGTCPVAGTGDWQTYTDAKCTVSGVTGKHDVYLVFKGDSGYLFNLNWFTFSE	soluble
MDIETIVNEFETRAGTLLRYYTGLLERSKVQPCCFKLYNDPFDMVYVMMNSKLFSHVYIKDCKVRQSFELASPKHTEGLIRSIEGHYVGYELHDGKQLSISDMMASQLFEDEYFMYGLQTYAESNNSDVFKCLENGFDTDTLEGIQSSNTDVIANIEMLYQLATGINEPVPELVEGLKLVTEFVQDENATQEDYKALERKLNDLKASYYSLSKLAAALEHHHHHH	soluble
MGHHHHHHSHMMSPGLLLKPWWGGAQSEMGRNGMLEGCSVMSVGASRLGEGRVRPRAHSRRPVTRPRWRAAGPCTGTCQGGSHSRTLVLRLKAVSTTPTSANDLVQIKFRRDGGNRVVEALNLSEKRKDRKALCFSQSLHLQGEEIELTALSRSFQLRNVYFMISNI	not soluble
MGSDKIHHHHHHKVEGNGNIITKEISVDNYSEIELGGNIEYSGNNFWGNRSNKKFPVFKYTHGRSASLKITIDENLFPLLSIKSNNGRLAIRIQDGTRIKPTQYVIEGSSKTLKYLKTSGPMDFEAQNAFSEDQLEIKISGSSDVKFPHNVKLRLGEFSVSGSGDLVFEDLDCKNLTSKVSGSGDITLKGKADEARYSVSGSGDIKAYDLSVNDLSCSVSGSGDARVYAKDNMNLSVSGSGDIRYKGPANVNKSKSGSGSIQGAN	not soluble
MRGSHHHHHHGSMSQPDATPFDYILSGGTVIDGTNAPGRLADVGVRGDRIAAVGDLSASSARRRIDVAGKVVSPGFIDSHTHDDNYLLKHRDMTPKISQGVTTVVTGNCGISLAPLAHANPPAPLDLLDEGGSFRFARFSDYLEALRAAPPAVNAACMVGHSTLRAAVMPDLRREATADEIQAMQALADDALASGAIGISTGAFYPPAAHASTEEIIEVCRPLITHGGVYATHMRDEGEHIVQALEETFRIGRELDVPVVISHHKVMGKLNFGRSKETLALIEAAMASQDVSLDAYPYVAGSTMLKQDRVLLAGRTLITWCKPYPELSGRDLEEIAAERGKSKYDVVPELQPAGAIYFMMDEPDVQRILAFGPTMIGSDGLPHDERPHPRLWGTFPRVLGHYSRDLGLFPLETAVWKMTGLTAAKFGLAERGQVQPGYYADLVVFDPATVADSATFEHPTERAAGIHSVYVNGAAVWEDQSFTGQHAGRVLNRAGA	soluble
MGSDKIHHHHHHMKEQILEKLKTVKYPGFEKDIVSFNFVKDIKIQDDGVFIDIEIVSANPEVANEIRKNTIEALSSLALKNIELNIITPKIPEEKSNSRSGKNIAPQVKNFIMVSSGKGGVGKSTTTVNLAISMAKMGKRVGILDADIYGPNIPRMLGETKTQPEVVGQRLKPILTHGVYMMSMGVLIEEGQGLMWRGAMIMKAIEQLLADVIWPELDVLFLDMPPGTGDAQITSAQSIPIAAGVCVSTPQTVSLDDSKRALDMFNKLHIPIAGVIENMSGFLCPDNGKEYDIFGKGTAEDMAKAYKSEVLAQIPIEMIVREGGDEGKPVSFYHPESVSSKRYLMAAEKIWSFIEKINNEGGADNSAIQPVMNGKSACSH	not soluble
MSLGTAVLDLMANGVDMLCWADPFFPDPVLPEHISQAVIKSMENGSASHYTMPIGNPELKEKIALKLQRYNNLTVEAQRNILITPGSDSGLLFAMMPFINNDDEVLIHSPSYPSNFLNVELLGGKPISVELKAENNFQIDIKDFENKITEKTKMVILTNPNNPTGTVLRRESLQAIADFIIAHDLILVVDQAFEDAIFDEIEFISIASLPGMWERTVSVFSFSKGMGLSGFRVGYLVADAQIVDVLFGCTVNVVGATNTSSQAGMIAALDEPSFMGEYTQIFERRRKVVFEMMNAIPGVCMVMPESGFLSWIDISKLGTSTFICDYLLQHAHVMVNSGVPYGQGGEGYIRLVHGCYKDDEKLYAVLTRIQQALMQLAKEGHHHHHH	not soluble
PGRLHNAIVRPRVLDLLQHATCYKLVLFRSPAGYGKTTMAAQWLADKPNLGWYSIDDSDNDPFRFMNYLLQAINKATHN	not soluble
